Results: the supplement of paper PMC12764529
± gives the half width of the 95% confidence interval.

Experiments:
[1] = folding stability dG unfold from trypsin proteolysis; higher = more stable
How it was run: (§1)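 Designed mini-proteins (under 80 residues, no cysteine) in a PA-tagged cDNA display construct were digested with trypsin and chymotrypsin. Each protease was used at 11 concentrations (threefold dilutions) plus a no-protease condition, followed by sequencing. K50 was inferred by Bayesian fitting of sequencing counts, and unfolding free energy was derived against a sequence-predicted unfolded-state K50 and a shared folded-state K50, per protease or combined. Only designs with AlphaFold2 dimer inter-PAE above 15 were kept.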

[2] = folding stability dG unfold from chymotrypsin proteolysis; higher = more stable
How it was run: as §1

[3] = folding stability dG unfold (combined trypsin and chymotrypsin); higher = more stable
How it was run: as §1

| Sequence | folding stability dG unfold [1] [kJ/mol] | folding stability dG unfold [2] [kJ/mol] | folding stability dG unfold [3] [kJ/mol] |
| --- | --- | --- | --- |
| SAGGSAGGSAGMSSVAPITTPDGKVAESVTVTEETLPNGEVVTKITTTLPDGTVVTTTLESAGGSAGGSAGG [r11_810_JUSTAS] | 6.66 ± 0.276 | 4.17 ± 0.213 | 5.44 ± 0.418 |
| SAGGSAGGSAGMSVRVIEGDPALAKKFIEEHPDEIVSVEVTPHPETGTYTYVFVFKGPPKSAGGSAGGSAGG [r17_79_TrMRF] | 9.73 ± 0.36 | 10.2 ± 0.172 | 9.99 ± 0.381 |
| SAGGSAGGSAGMTAKIVERRVLPGDGYLLLVEHPDGSRSAIVVPPELLENLDISDTVEFDSAGGSAGGSAGG [r11_943_TrMRF] | 2.41 ± 0.159 | 2.47 ± 0.109 | 2.5 ± 0.268 |
| SAGGSAGGSAGMTIKVYDPKTGEKILEIEIDPSLTPEQLKALADELRKKLPPGARIEIVPSAGGSAGGSAGG [r11_1081_TrROS_Hall] | 19.1 ± 0.837 | 15.5 ± 0.368 | 18.3 ± 0.544 |
| SAGGSAGGSAGMTVEDLEFDIPFESEEEAIEYLKKKLPKDYTIKPIGFEPENGKLKVKVTKKSAGGSAGGSA [r18_429_JUSTAS] | 2.03 ± 0.795 | 3.3 ± 0.628 | 3.35 ± 1.26 |
| SAGGSAGGSAGMTVTETPVLVRYPEDGSVRPFTLTTSPEPGTLTLDLPPAEWPPLEITPPGSAGGSAGGSAG [r3_454_JUSTAS] | -0.403 ± 0.502 | -2.03 ± 1.38 | -1.36 ± 0.711 |
| SAGGSAGGSAGMVEVEVRKTENGNYVVTTTTVTTSPVTTPNPYTRTVTTVTTSTTVIPATSAGGSAGGSAGG [r11_403_JUSTAS] | -3.17 ± 1.26 | -0.424 ± 0.962 | -0.783 ± 1.63 |
| SAGGSAGGSAGMVEVYSEPDGTVIVKETVPGKVVITVLEKVPGGPGLNPVTTTVVPPGLLSAGGSAGGSAGG [r11_844_JUSTAS] | 5.87 ± 0.155 | 3.29 ± 0.243 | 4.64 ± 0.18 |
| SAGGSAGGSAGMVKSLSELLAENPDLSIEEIKAKLEKEGYKVEVKKEGDTPVVYIKKGKKSAGGSAGGSAGG [r11_707_JUSTAS] | 5.99 ± 0.167 | 3.2 ± 0.586 | 4.69 ± 0.669 |
| SAGGSAGGSAGMVLPVTKVYRDGDTVYLYFDGLGLIAEIRIDDDKITLPSVYRVHPDEDLSAGGSAGGSAGG [r17_30_TrMRF] | 3.49 ± 0.159 | 1.83 ± 0.46 | 2.89 ± 0.397 |
| SAGGSAGGSAGMVLVFDKKTGELYLYDKNGKLVAKFKVEGAEEVVVLVFDPDTNELKLVPSAGGSAGGSAGG [r17_413_TrROS_Hall] | 10.4 ± 0.205 | 15.4 ± 0.155 | 14.2 ± 0.272 |
| SAGGSAGGSAGMVNTTLTTAPDGTRIVTTTFPENPDLVLRTTYAPDGSVLETELVPSSQLSAGGSAGGSAGG [r11_909_JUSTAS] | 8.27 ± 0.188 | 4.34 ± 0.0962 | 6.38 ± 0.109 |
| SAGGSAGGSAGMVVETSKNPPTSDTVVTTLVPSPNSTTVTTTIVSPDPNTIKETTTTPTPSAGGSAGGSAGG [r11_100_JUSTAS] | 10.1 ± 0.268 | 5.16 ± 0.0795 | 7.55 ± 0.142 |
| SAGGSAGGSAGMVVKVKEHPITITKLPDGSWRLTHPASGKVILLPGVDEATAKAIAEELTSAGGSAGGSAGG [r11_1085_JUSTAS] | 5.28 ± 0.0628 | 7.36 ± 0.113 | 6.62 ± 0.226 |
| SAGGSAGGSAGMVVTINDPKKAKKIDENSVITIPDGKKYKVVKVEVDEKNGYWTLTIEPLSAGGSAGGSAGG [r11_316_JUSTAS] | 4.57 ± 0.23 | 10.7 ± 0.213 | 9.11 ± 0.628 |
| SAGGSAGGSAGMYRVEIEIEMSKEQLEALKKNKNLKPGQKIDLKVKIKIEPVKLDKNGKLSAGGSAGGSAGG [r17_194_TrROS_Hall] | 6.57 ± 0.213 | 10.2 ± 0.151 | 9.73 ± 0.544 |
| SAGGSAGGSAGNIMILNKDGKIIAEIKIEEKYEIDKDGKIKKTKKIEIKIVPVPPGEKIKSAGGSAGGSAGG [r17_480_TrROS_Hall] | 3.63 ± 0.234 | 8.12 ± 0.46 | 5.21 ± 1.21 |
| SAGGSAGGSAGNKKAEEIKKILEEKGFEVVSVKVYKPKGNKPVVKIEVKAKNGKKFTILASAGGSAGGSAGG [r11_780_TrMRF] | 12.4 ± 0.837 | 13.7 ± 0.163 | 13.5 ± 0.837 |
| SAGGSAGGSAGNKYLIKVKKKNGNKSEELEIEVEDNPEIAEKIAEELKKKGNIVSVEIKKASAGGSAGGSAG [r3_310_TrMRF] | 3.19 ± 0.418 | 1.68 ± 0.879 | 2.76 ± 0.962 |
| SAGGSAGGSAGNTIEIEINGKPIYVEFEPLPEGMVKVKIYFPDGKKEEITLPANDPIKIGSAGGSAGGSAGG [r11_525_TrROS] | 6.4 ± 0.285 | 6.69 ± 0.188 | 6.59 ± 0.544 |
| SAGGSAGGSAGNVTLTRVEVLEGEDDRPLIKATFSFEPGPQVLVFEGDNPDDIEIDVDVGSAGGSAGGSAGG [r17_64_TrMRF] | -1.88 ± 0.402 | 0.342 ± 0.502 | -0.205 ± 0.544 |
